Laboratory results taken from patent US7465537B2, “Compounds and methods for inhibiting hepatitis C virus replication” (The Board of Trustees of the University of Arkansas, priority 2005, dated 2008).
Substitutions are numbered along the chain they refer to. In names and notes the source's numbering stands.

B1: NS3h: wild type HCV NS3 helicase domain, expressed and purified independently of NS3 protease (protein)
chain: AVDFVPVESMETTMRSPVFTDNSSPPAVPQTFQVAHLHAPTGSGKSTKVPAAYAAQGYKVLVLNPSVAATLGFGAYMSKAHGIDPNIRTGVRTITTGAPITYSTYGKFLADGGCSGGAYDIIICDECHSTDSTTILGIGTVLDQAETAGARLVVLATATPPGSVTVPHPNIEEVALSSTGEIPFYGKAIPIETIKGGRHLIFCHSKKKCDELAAKLSGLGLNAVAYYRGLDVSVIPTSGDVIVVATDALMTGFTGDFDSVIDCNTCVTQTVDFSLDPTFTIETTTVPQDAVSRSQRRGRTGRGRMGIYRFVTPGERPSGMFDSSVLCECYDAGCAWYELTPAETSVRLRAYLNTPGLPVCQDHLEFWESVFTGLTHIDAHFLSQTKQAGDNFPYLVAYQATVCARAQAPPPSWDQMWKCLIRLKPTLHGPTPLLYRLGAVQNEVTTTHPITKYIMACMSADLEVVT
B2: NS3h KDA: purified NS3 helicase domain with D543K/H545D/Q549A mutations (protein)
chain: B1 chain with D378K, H380D, Q384A

Assays:
HCV-Luc replicon = HCV-Luc replicon luciferase assay in Huh-7 cells; format: cell-based, hepatitis C virus; conditions: peptide added to Huh-7 cells containing the replicon; 48 hours
Description: HCV Replicon assays: Huh-7 cells were transiently transfected with replicon RNA having a firefly (P. pyralis) luciferase gene (0.2 μg/well), and with a control plasmid pRL (0.05 μg/well) having a renilla (R. reniformis) luciferase gene, using DMRIEC (Invitrogen) reagent as per the kit protocol (19). The specific additions of pmNS3, mutant replicon, pwt-NS3 etc were done concurrently. The cells were lysed after 48 hours, and luciferase activity detected using the DUAL LUCIFERASE assay kit (Promega) (24, 25).
Trans complementation assays: These assays were performed in the same manner as the regular replicon assays except that in the trans complementation assays two RNA's of different replicons (wild type and the mutant) were added along with a pRL plasmid to control for transfection efficiency.
In vivo the dominant negative mNS3 (pmNS3) down regulates the activity of the HCV-Luc replicon: Huh-7 cells were plated in a 12-well plate at 0.1 million cells per well. […]
The peptide was introduced into Huh-7 cells containing the HCV luciferase replicon. 48 hours after introduction of the peptide, luciferase activity was measured. […]

dT15 DNA = assay: DNA binding by fluorescence polarization; conditions: 37° C.
Description: (§1) FIGS. 10A and B. Binding of mutant NS3h to fluorescein-labeled U20 RNA (FIG. 10A) or dT15 DNA (FIG. 10B). Nucleic acid binding was determined by measuring fluorescence polarization following incubation of protein and nucleic acid at 37° C. Data were fit to a hyperbola using Kaleidagraph software.
(§2) Varying concentrations of NS3h were incubated with 500 pM 5′-fluorescein-labeled rU20 (Integrated DNA Technologies) in 50 mM MOPS-K+(pH 7.0), 10 mM NaCl, 50 μM EDTA, 0.1 mg/ml BSA for 5 minutes at 37° C. Binding was measured as a function of fluorescence polarization using a Beacon fluorescence polarization system. Data were fit to a hyperbola using Kaleidagraph software.

[1] = test system: partial duplex DNA substrate (15 nt single stranded, 30 base pairs); assay: ATP-independent DNA unwinding assay; format: biochemical; conditions: 500 nM enzyme, excess over substrate, no ATP, 37° C.
Description: FIG. 13. Graph showing ATP-independent unwinding activity of NS3h wild-type, NS3h KDA, and NS3h DDDD. NS3h, 500 nM, was incubated with a partial duplex DNA substrate containing 15 nt of single stranded DNA and 30 base pairs at 37° C. Aliquots were quenched by addition of 100 μM poly dT and 60 nM of a 30mer oligonucleotide that served to prevent reannealing. ssDNA was separated from dsDNA by native polyacrylamide electrophoresis and the resulting fractions were quantified by using IMAGEQUANT software. DNA melting is shown for NS3h (●), NS3h KDA (♦), and NS3h DDDD (▪).
NS3h or NS3h mutant enzymes (500 nM) were mixed with 2 nM DNA substrate (described in steady state section) in 25 mM MOPS (pH 7.0), 10 mM NaCl, 0.1 mM EDTA (pH 8.0), 2 mM βME, and 0.1 mg/mL BSA at 37° C. Aliquots were transferred to a ‘quench solution’ containing 200 mM EDTA, 0.7% SDS, 5 mM ATP, 10 mM MgCl2, 60 nM annealing trap, and 100 μM poly-dT protein trap. Double- and single-stranded DNA were resolved on a native 20% polyacrylamide gel. The radiolabeled substrate and product were detected using a PHOSPHORIMAGER (Molecular Dynamics, Sunnyvale, Calif.); quantitation was performed with IMAGEQUANT software. The ratio of single- to double-stranded DNA was determined and plotted as a function of time.

45:30mer DNA substrate [2] = assay: Steady state DNA unwinding assay; format: biochemical
Description: FIGS. 12A-C. Steady state unwinding activity of mutant versus wild type NS3h. A) The assay for measuring helicase unwinding activity is depicted. A partially duplexed substrate containing 30 bp and 15 nt of ss overhang (45:30mer) was incubated with NS3h in the presence of ATP and Mg^+2 leading to unwinding of the duplex. B) Comparison of unwinding of DNA and RNA substrates by NS3h. Otherwise identical 250 nM duplexed DNA and RNA substrates were incubated with 100 nM NS3h. Reactions were initiated by addition of 5 mM ATP and 10 mM MgCl2 and quenched by addition of 200 mM EDTA/0.7% SDS. C) Unwinding of 250 nM substrate under steady state conditions. Unwinding by 100 nM NS3h (●), NS3h KDA (∘), and NS3h DDDD (▪) occurred at rates of 5.3 nM min^−1, 5.7 nM min^−1, and 4.1 nM min^−1, respectively.
The substrate used was a 45-mer/30-mer containing 30 base pairs of double-stranded DNA with a 15 base 3′ single-stranded overhang. One strand was radiolabeled by incubation with γ-^32P-ATP and T4 polynucleotide kinase at 37° C. for 60 min. Unincorporated ATP was removed by SEPHADEX G-25 filtration. Equimolar amounts of labeled and complementary unlabeled strands were combined, heated to 95° C. for 10 min, and cooled slowly to room temperature to generate the final substrate. For steady state unwinding experiments, 100 nM NS3h was incubated with 250 nM substrate in 25 mM HEPES (pH=7.5), 0.5 mM EDTA, 10 mM MgCl2, 10 mM NaCl, 0.1 mg/ml BSA. Reactions were initiated by addition of 5 mM ATP. Aliquots were taken at specific time points and the reaction was quenched by addition of 200 mM EDTA, 0.7% SDS. Substrate and product were separated by native polyacrylamide gel electrophoresis and detected and quantified by phosphorimaging analysis.

[3] = Coupled ATPase assay stimulated by polyU; format: biochemical; conditions: saturating polyU
Description: FIG. 11. ATPase activity of mutant NS3h was measured as a function of NADH concentration in a coupled assay at varying concentrations of polyU. Data were fit to a hyperbola using Kaleidagraph software. […] Specific activity of NS3h DDDD (▪) was lower.
NS3h was incubated with 5 mM ATP in 50 mM HEPES (pH=7.5), 5 mM EDTA, 10 mM MgCl2, 10 mM NaCl, 0.1 mg/ml BSA, 4 mM phosphoenolpyruvate, 10 U/ml pyruvate kinase/lactate dehydrogenase, and 0.7 mg/ml NADH. Absorbance of NADH at 380 nm was measured at 1 sec intervals for a period of 30 sec in the presence of the indicated concentrations of poly-U. Hydrolysis rates were calculated using an extinction coefficient of 1,210 M^−1 cm^−1 for NADH. Data were fit to a hyperbola using Kaleidagraph software.

[4] = molecular target: fluorescein-labeled U20 RNA; assay: RNA binding assay by fluorescence polarization; conditions: 37° C.
Description: as §1, §2

45:30mer DNA substrate [5] = assay: Single turnover DNA unwinding assay (quench-flow, two-step mixing); format: biochemical; conditions: for single turnover unwinding rate / amplitude for unwinding: 500 nM enzyme; for single turnover unwinding rate: 2 nM substrate, fit to equation 1; for amplitude for unwinding: single turnover
Description: FIG. 14. Single turnover DNA unwinding by NS3h and NS3h mutant enzymes. A two-step mixing technique was used to measure single-turnover unwinding in the presence of excess NS3h. NS3h (500 nM) or mutant enzyme was rapidly mixed with substrate followed by a 10-second incubation. A second, rapid mixing step followed in which ATP, Mg^+2, and protein trap (poly dT) was added. Data were fit according to equation 1 resulting in unwinding rates of 3.1±0.1 s^−1 and 3.7±0.1 s−1 for NS3h (●) and NS3h KDA (♦), respectively. The amplitudes for unwinding were 0.35±0.01 nM and 0.21±0.01 nM for NS3h and NS3h KDA, respectively.
Unwinding assays were carried out using a Quench-Flow apparatus (RQF-3, KinTek Instruments, Austin, Tex.) with a two-step mixing protocol (49). Reactions were carried out in 25 mM MOPS (pH 7.0), 10 mM NaCl, 0.1 mM EDTA (pH 8.0), 2 mM βME, and 0.1 mg/mL BSA at 37° C.; all concentrations are post-mixing. NS3h (500 nM) was mixed with 2 nM DNA substrate (described in steady state section) for 10 seconds before adding 5 mM ATP, 10 mM MgCl2, 60 nM annealing trap (complementary to the displaced strand), and 100 μM poly-dT protein trap. The reaction was quenched after 0.1-15 seconds by ejection into a tube containing 200 mM EDTA, 0.7% SDS. Double- and single-stranded DNA were resolved on a native 20% polyacrylamide gel. The radiolabeled substrate and product were detected using a PHOSPHORIMAGER (Molecular Dynamics, Sunnyvale, Calif.); quantitation was performed with IMAGEQUANT software. The ratio of single- to double-stranded DNA was determined and plotted as a function of time. Data were fit to Equation 1, using KALEIDAGRAPH (Synergy Software, Reading, Pa.). This equation describes a 5-step mechanism for DNA unwinding that is necessary to fit the substantial lag phase associated with unwinding of the substrate (49, 52, 53). A{1−[1+kobst+1/2 (kobst)^2+1/6 (kobst)^3+1/24(kobst)^4]e^−kobs^t} Eq. 1 Results Crystallization and Structural Analysis of NS3h Bound to (dU)16

[6] = 100 nM enzyme, 250 nM substrate

| Molecule | luciferase activity of HCV luciferase replicon after peptide (HCV-Luc replicon) | Kd (dT15 DNA) | ATP-independent unwinding [1] | steady state unwinding rate (45:30mer DNA substrate [2]; [6]) | steady state unwinding rate (45:30mer DNA substrate [2]; 45:30mer DNA, steady state conditions) | ATPase specific activity [3] | Kd [4] | single turnover unwinding rate (45:30mer DNA substrate [5]) | fraction of 45:30mer unwound (45:30mer DNA substrate [5]; same substrate, same conditions for both forms (unpublished data)) | amplitude for unwinding (45:30mer DNA substrate [5]) |
| --- | --- | --- | --- | --- | --- | --- | --- | --- | --- | --- |
| HIDAHFLSQTK-GGG-YARAAARQARA (HIDAHFLSQTKGGGYARAAARQARA; NS3-oligomerization inhibitor peptide with cell entry peptide) [HCV inhibitor peptide, 25 amino acid peptide: NS3 residues 541-551, three-glycine linker, peptide transduction domain …] | strongly reduced the luciferase activity |  |  |  |  |  |  |  |  |  |
| B1 |  | 5.9 ± 1.4 nM | much greater ATP-independent unwinding than NS3h KDA or NS3h DDDD | 5.3 nM/min | approximately 1 nM/min | 126 s⁻¹ | 47 ± 5 nM | 3.1 ± 0.1 s⁻¹ | 17% | 0.35 ± 0.01 nM |
| B2 |  | 2.6 ± 0.8 nM |  | 5.7 nM/min |  | 108 s⁻¹ | 38 ± 4 nM | 3.7 ± 0.1 s⁻¹ |  | 0.21 ± 0.01 nM |
